The stoichiometry N is a count of units in the complex or per binding partner.

The experiment addresses recombinant mature human CD73 (soluble CD73, GPI anchor signal peptide replaced by a C-terminal 6x-histidine tag) (human). The experiment in a line: SEC-MALS.

Take “recombinant mature human CD73 (soluble CD73, GPI anchor signal peptide replaced by a C-terminal 6x-histidine tag) (enzyme)”: the stoichiometry N stood at 2.
